Reference: patent US20150368338A1 (Janssen / Centocor, published 2015)

T1: IFN-αF (human, UniProt P01568 24-189)
T1 construct: Recombinant, HEK293; also called IFN-α21
T1 chain: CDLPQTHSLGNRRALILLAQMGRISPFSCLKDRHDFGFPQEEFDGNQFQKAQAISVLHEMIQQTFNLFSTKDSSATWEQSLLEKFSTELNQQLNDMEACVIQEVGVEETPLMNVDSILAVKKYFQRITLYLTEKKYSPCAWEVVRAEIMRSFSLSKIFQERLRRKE


Legend:
Test in all cases: ProteOn SPR, cell supernatant;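 note: each binding measurement used just a single antigen concentration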
[1] = target: T2, IFN-α4a (human, UniProt P05014 24-189)
T2 construct: Recombinant, HEK293; also called IFN-αM1

[2] = target: T3, IFN-αC (human, UniProt P01566 24-189)
T3 construct: Recombinant, HEK293; also called IFN-α10

[3] = target: T4, IFN-αJ1 (human, UniProt P01567 24-189)
T4 construct: Recombinant, HEK293; also called IFN-α7

[4] = target: T5, human IFN-ω (human, UniProt P05000 24-195)
T5 construct: Recombinant, HEK293; also called interferon omega

[5] = target: T6, IFN-αWA (human, UniProt P05015 24-189)
T6 construct: Recombinant, HEK293; also called IFN-α16

[6] = target: T7, IFN-αG (human, UniProt P01569 24-189)
T7 construct: Recombinant, HEK293; also called IFN-α5

[7] = target: T1, IFN-αF

Row | Binder | Kd [1] [nM] | Kd [2] [nM] | Kd [3] [nM] | Kd [4] [nM] | Kd [5] [nM] | Kd [6] [nM] | Kd [7] [nM]
1 | IFWM3397 (antibody, IgG1, V domains shown, mAb; IgG1/kappa said of the parent and of selected mAbs; also called IFWB3132) VH: EVQLVQSGAEVKKPGESLKISCKGSGYSFTSYWIGWVRQMPGKGLEWMGIIDPSDSDTRYSPSFQGQVTISADKSISTAYLQWSSLKASDTAMYYCARHPGLAWAPDFDYWGQGTLVTVSS VL: DIQMTQSPSSLSASVGDRVTITCRASQSITGFLNWYQQKPGKAPKLLIYAASSLQSGVPSRFSGSGSGTDFTLTISSLQPEDFATYYCQQSHDFPLTFGQGTKVEIK | 0.119 | 0.027 | 0.078 | 0.025 | 0.062 | 0.043 | 0.028
2 | IFWM3395 (antibody, IgG1, V domains shown, mAb; IgG1/kappa said of the parent and of selected mAbs; also called IFWB3130) VH: EVQLVQSGAEVKKPGESLKISCKGSGYSFTSYWIGWVRQMPGKGLEWMGIIDPSDSDTRYSPSFQGQVTISADKSISTAYLQWSSLKASDTAMYYCARHPGLAWAPDFDYWGQGTLVTVSS VL: DIQMTQSPSSLSASVGDRVTITCRASQSISKFLNWYQQKPGKAPKLLIYFASSLQSGVPSRFSGSGSGTDFTLTISSLQPEDFATYYCQQSYDFPITFGQGTKVEIK | 0.279 | 0.116 | 0.181 | 0.019 | 0.063 | 0.063 | 0.102
3 | IFWM3419 (antibody, IgG1, V domains shown, mAb; IgG1/kappa said of the parent and of selected mAbs; also called IFWB3154) VH: EVQLVQSGAEVKKPGESLKISCKGSGYSFTSYWIGWVRQMPGKGLEWMGIIDPSDSDTRYSPSFQGQVTISADKSISTAYLQWSSLKASDTAMYYCARHPGLAWAPDFDYWGQGTLVTVSS VL: DIQMTQSPSSLSASVGDRVTITCRASQSIAGFLNWYQQKPGKAPKLLIYYASSLQSGVPSRFSGSGSGTDFTLTISSLQPEDFATYYCQQSYSIPITFGQGTKVEIK | 0.582 | 0.126 | 0.399 | 0.086 | 0.193 | 0.081 | 0.158
4 | IFWM3403 (antibody, IgG1, V domains shown, mAb; IgG1/kappa said of the parent and of selected mAbs; also called IFWB3138) VH: EVQLVQSGAEVKKPGESLKISCKGSGYSFTSYWIGWVRQMPGKGLEWMGIIDPSDSDTRYSPSFQGQVTISADKSISTAYLQWSSLKASDTAMYYCARHPGLAWAPDFDYWGQGTLVTVSS VL: DIQMTQSPSSLSASVGDRVTITCRASQSIRNSLNWYQQKPGKAPKLLIKWASSLQSGVPSRFSGSGSGTDFTLTISSLQPEDFATYYCQQLYDWPLTFGQGTKVEIK | 0.062 | 0.025 | 0.059 | 0.007 | 0.023 | 0.027 | 0.027
5 | IFWM3372 (antibody, IgG1, V domains shown, mAb; IgG1/kappa said of the parent and of selected mAbs; also called IFWB3107) VH: EVQLVQSGAEVKKPGESLKISCKGSGYSFTSYWIGWVRQMPGKGLEWMGIIDPSDSDTAYSPSFQGQVTISADKSISTAYLQWSSLKASDTAMYYCARHPGLNWAPDFDYWGQGTLVTVSS VL: DIQMTQSPSSLSASVGDRVTITCRASQSIDNNNLNWYQQKPGKAPKLLIYAASSLQSGVPSRFSGSGSGTDFTLTISSLQPEDFATYYCQQGYDWPLTFGQGTKVEIK | 0.432 | 0.094 | 0.69 | 0.049 | 0.272 | 0.103 | 0.116
6 | IFWM3418 (antibody, IgG1, V domains shown, mAb; IgG1/kappa said of the parent and of selected mAbs; also called IFWB3153) VH: EVQLVQSGAEVKKPGESLKISCKGSGYSFTSYWIGWVRQMPGKGLEWMGIIDPSDSDTRYSPSFQGQVTISADKSISTAYLQWSSLKASDTAMYYCARHPGLNWAPDFDYWGQGTLVTVSS VL: DIQMTQSPSSLSASVGDRVTITCRASQSIAGFLNWYQQKPGKAPKLLIYYASSLQSGVPSRFSGSGSGTDFTLTISSLQPEDFATYYCQQSYSIPITFGQGTKVEIK | 1.16 | 0.191 | 0.656 | 0.089 | 0.493 | 0.178 | 0.229
7 | IFWM3375 (antibody, IgG1, V domains shown, mAb; IgG1/kappa said of the parent and of selected mAbs; also called IFWB3110) VH: EVQLVQSGAEVKKPGESLKISCKGSGYSFTSYWIGWVRQMPGKGLEWMGIIDPSDSDTAYSPSFQGQVTISADKSISTAYLQWSSLKASDTAMYYCARHPGLNWAPDFDYWGQGTLVTVSS VL: DIQMTQSPSSLSASVGDRVTITCRASQSIRNNYLNWYQQKPGKAPKLLIYAASSLQSGVPSRFSGSGSGTDFTLTISSLQPEDFATYYCQQGYDTPLTFGQGTKVEIK | 0.067 | 0.022 | 0.045 | 0.019 | 0.031 | 0.035 | 0.023

Continued, values first:

Row | Kd [1] [nM] | Kd [2] [nM] | Kd [3] [nM] | Kd [4] [nM] | Kd [5] [nM] | Kd [6] [nM] | Kd [7] [nM] | Binder
8 | 0.166 | 0.049 | 0.096 | 0.057 | 0.078 | 0.064 | 0.041 | IFWM3393 (antibody, IgG1, V domains shown, mAb; IgG1/kappa said of the parent and of selected mAbs; also called IFWB3128) VH: EVQLVQSGAEVKKPGESLKISCKGSGYSFTSYWIGWVRQMPGKGLEWMGIIDPSDSDTRYSPSFQGQVTISADKSISTAYLQWSSLKASDTAMYYCARHPGLAWAPDFDYWGQGTLVTVSS VL: DIQMTQSPSSLSASVGDRVTITCRASQSITSSLNWYQQKPGKAPKLLIYFASSLQSGVPSRFSGSGSGTDFTLTISSLQPEDFATYYCQQSFDLPLTFGQGTKVEIK
9 | 0.1 | 0.043 | 0.125 | 0.018 | 0.064 | 0.05 | 0.05 | IFWM3371 (antibody, IgG1, V domains shown, mAb; IgG1/kappa said of the parent and of selected mAbs; also called IFWB3106) VH: EVQLVQSGAEVKKPGESLKISCKGSGYSFTSYWIGWVRQMPGKGLEWMGIIDPSDSDTAYSPSFQGQVTISADKSISTAYLQWSSLKASDTAMYYCARHPGLNWAPDFDYWGQGTLVTVSS VL: DIQMTQSPSSLSASVGDRVTITCRASQSIANTNLNWYQQKPGKAPKLLIHWASSLQSGVPSRFSGSGSGTDFTLTISSLQPEDFATYYCQQWYDNPLTFGQGTKVEIK
10 | 0.155 | 0.039 | 0.225 | 0.01 | 0.041 | 0.021 | 0.039 | IFWM3370 (antibody, IgG1, V domains shown, mAb; IgG1/kappa said of the parent and of selected mAbs; also called IFWB3105) VH: EVQLVQSGAEVKKPGESLKISCKGSGYSFTSYWIGWVRQMPGKGLEWMGIIDPSDSDTAYSPSFQGQVTISADKSISTAYLQWSSLKASDTAMYYCARHPGLNWAPDFDYWGQGTLVTVSS VL: DIQMTQSPSSLSASVGDRVTITCRASQSIDNSYLNWYQQKPGKAPKLLIYGASSLQSGVPSRFSGSGSGTDFTLTISSLQPEDFATYYCQQGWDWPLTFGQGTKVEIK
11 | 0.113 | 0.034 | 0.14 | 0.02 | 0.062 | 0.048 | 0.039 | IFWM3376 (antibody, IgG1, V domains shown, mAb; IgG1/kappa said of the parent and of selected mAbs; also called IFWB3111) VH: EVQLVQSGAEVKKPGESLKISCKGSGYSFTSYWIGWVRQMPGKGLEWMGIIDPSDSDTAYSPSFQGQVTISADKSISTAYLQWSSLKASDTAMYYCARHPGLNWAPDFDYWGQGTLVTVSS VL: DIQMTQSPSSLSASVGDRVTITCRASQSISNSNLNWYQQKPGKAPKLLIHWASSLQSGVPSRFSGSGSGTDFTLTISSLQPEDFATYYCQQWYDHPLTFGQGTKVEIK
12 | 0.061 | 0.017 | 0.044 | 0.026 | 0.03 | 0.022 | 0.017 | IFWM3398 (antibody, IgG1, V domains shown, mAb; IgG1/kappa said of the parent and of selected mAbs; also called IFWB3133) VH: EVQLVQSGAEVKKPGESLKISCKGSGYSFTSYWIGWVRQMPGKGLEWMGIIDPSDSDTRYSPSFQGQVTISADKSISTAYLQWSSLKASDTAMYYCARHPGLAWAPDFDYWGQGTLVTVSS VL: DIQMTQSPSSLSASVGDRVTITCRASQSINGVLNWYQQKPGKAPKLLIYFASSLQSGVPSRFSGSGSGTDFTLTISSLQPEDFATYYCQQSHDFPLTFGQGTKVEIK
13 | 0.105 | 0.063 | 0.077 | 0.045 | 0.049 | 0.091 | 0.063 | IFWM3394 (antibody, IgG1, V domains shown, mAb; IgG1/kappa said of the parent and of selected mAbs; also called IFWB3129) VH: EVQLVQSGAEVKKPGESLKISCKGSGYSFTSYWIGWVRQMPGKGLEWMGIIDPSDSDTRYSPSFQGQVTISADKSISTAYLQWSSLKASDTAMYYCARHPGLAWAPDFDYWGQGTLVTVSS VL: DIQMTQSPSSLSASVGDRVTITCRASQSINEFLNWYQQKPGKAPKLLIYFASSLQSGVPSRFSGSGSGTDFTLTISSLQPEDFATYYCQQSYSTPLTFGQGTKVEIK
14 | 0.079 | 0.005 | 0.037 | 0.011 | 0.068 | 0.061 | 0.007 | IFWM3396 (antibody, IgG1, V domains shown, mAb; IgG1/kappa said of the parent and of selected mAbs; also called IFWB3131) VH: EVQLVQSGAEVKKPGESLKISCKGSGYSFTSYWIGWVRQMPGKGLEWMGIIDPSDSDTRYSPSFQGQVTISADKSISTAYLQWSSLKASDTAMYYCARHPGLAWAPDFDYWGQGTLVTVSS VL: DIQMTQSPSSLSASVGDRVTITCRASQSISEYLNWYQQKPGKAPKLLIYFASSLQSGVPSRFSGSGSGTDFTLTISSLQPEDFATYYCQQSHSLPITFGQGTKVEIK
15 | 0.475 | 0.113 | 0.299 | 0.036 | 0.124 | 0.037 | 0.118 | IFWM3420 (antibody, IgG1, V domains shown, mAb; IgG1/kappa said of the parent and of selected mAbs; also called IFWB3155) VH: EVQLVQSGAEVKKPGESLKISCKGSGYSFTSYWIGWVRQMPGKGLEWMGIIDPSDSDTAYSPSFQGQVTISADKSISTAYLQWSSLKASDTAMYYCARHPGLNWAPDFDYWGQGTLVTVSS VL: DIQMTQSPSSLSASVGDRVTITCRASQSIAGFLNWYQQKPGKAPKLLIYYASSLQSGVPSRFSGSGSGTDFTLTISSLQPEDFATYYCQQSYSIPITFGQGTKVEIK
